# Measurements taken from the DeepSol protein solubility set.
# Assay: soluble on expression in E. coli; label from the status in PepcDB or PDB records
row,Sequence,soluble on expression in E. coli
1,MIILIRYGPIDVTYCRMKRGFMYMVAIIDWYSRYIVGFELSNTLDKTFVIEAIQKAIKRYGKPEIMNSDQGSQFTSDDYINLLKNNGIKISMDGKGRALDNQRIERFFRSYKWEKLYLEECETVQQLRQITKEYVEHYNHRRPHQSLDYKTPAEYYFGGYDQLLAVV,not soluble
2,MIIRIKHYGEVKIEDSKNLLLNLIENRIGIDNICNGKGTCGKCKVRFRQGVPEATSADLRYLSVEELEEGVRLACQVKPQKGMEIDVTLSNSFDRKNTVLEHHHHHH,not soluble
3,MIKFNIRGENVEVTDAIRAYVEDKIGKLDKYFNDGHEVTAYVNLKVYSEKRAKVEVTLPAKNVTLRAEDTSQDMYSSIDFVEEKLERQIRKYKTRMNRKPRNAVPTGQAFGDEFAPLEKADEVAEDHVDIVRTKHVALKPMDAEEAVLQMDMLGHDFYVFTDADSNGTHVVYRRTDGRYGLIETELEHHHHHH,soluble
4,MIKGGGGKSSGYSADLMVCFPSRAHLSLPSKSISSPSSSFNRRQNAPHHRRSISKLSSSGGGVRQNRGGGREVVEEPTSPKVTCAGQIKVRSSKRDGGGKNWQSLMAEIEKIHRSKSESKFFGIKRDVMGFLTCLRDFDFRCFGAFPPVDIISDDEEEDEEEEEEDEEEDEDESSGTVFSKWLMVLHEKQNNEECVDGKENVFSDVETAVPPPNALLLMRCRSAPVKNWSEEKKEETEEGDNRVKQSGEEEEEEKDRVGNKKDLRSLMEEEKKMNLVVMNYDTNYYKLSNDIAKETWVVGGIQDPLFRSRSWKK,not soluble
5,MIKKYTCKNGVRIVMENIPTVRSVAIGIWIHAGSRNENEKNNGISHFLEHMFFKGTETRSAREIAESFDSIGGQVNAFTSKEYTCYYAKVLDEHAKYALDVLADMFFNSTFDEEELKKEKNVVCEEIKMYEDAPDDIVHDMLTKATYETHPLGYPILGTEETLNTFTGDTLRQYIKDHYTPENVVVSIAGNIDEAFLQTVEQYFGSYEGTTNREQVHSPIFHFNKVARKKETEQAHLCLGYKGLQMGHEDIYNLIVLNNVLGGSMSSRLFQEVREQRGLAYSVFSYHSSYEDTGMLTLYGGTGSQQLDTLYETMQETLETLKNTGITEKELINSKEQLKGNLMLSLESTNSRMSRNGKNELLLRKHRSLDEIIESVNTVTKENVDELIRNMFTDEFSAALISPDGKLPKGIKL,not soluble
6,MIKLERETKPDYLSDEKVFELTESFKATKKSVWNHDHIKIPLLRSSHSKCAYCECPLTSASNYMEVEHFEDKNHYPEKVVLWENLLPSCKKCNGAKGQHDVIGDPIINPYVEDPKNHLSMRLYRFRAKSDKGQSTIEVTQLNSSDRSVFCRYEIGEKISEMIDLGFERWNEYLVRNNTRSKNKLVNLVQGLLNECQPTSSYSASTATNLLTDPKFIELMSLMREADIVSEELDDLILKASTLVLDYVLEHHHHHH,not soluble
7,MIKLKNVTKTYKMGEEIIYALKNVNLNIKEGEFVSIMGPSGSGKSTMLNIIGCLDKPTEGEVYIDNIKTNDLDDDELTKIRRDKIGFVFQQFNLIPLLTALENVELPLIFKYRGAMSGEERRKRALECLKMAELEERFANHKPNQLSGGQQQRVAIARALANNPPIILADEPTGALDSKTGEKIMQLLKKLNEEDGKTVVVVTHDINVARFGERIIYLKDGEVEREEKLRGFDDR,soluble
8,MIKLVAFDLDGTIGNTLPMCIQAFKKATQPYIGHELSDEEMVHTFGLNEEGMIGCVVDEPYRQQALNDFYVIYKELHQEMCPTPFEGIRELIALLKQKGIIVALITGKGINSCDITLKQFNMKDSFAKVITGNAERNIKSEALKELLHDYHLAANEIVYVGDALSDITECRKANVMCLSAAWSIPQNEVTALENSNPKNVFYSISSLFKYL,not soluble
9,MIKMIVVLRLGHRPERDKRVTTHVALTARAFGADGIIIASEEDEKVKESVEDVVKRWGGPFFIEFNRNWRKVMKEFTGVKVHLTMYGLHVDDVIEELKEKLKKGEDFMIIVGAEKVPREVYELADYNVAIGNQPHSEVAALAVLLDRLLEGKGLKKEFKGAKIKIVPQARGKKVVEVQGYAEQDKAEGKATPGKNWENSGFTGDNP,soluble
10,MIKQTIVALLLSVGASSVFAAGTVKVFSNGSSEAKTLTGAEHLIDLVGQPRLANSWWPGAVISEELATAAALRQQQALLTRLAEQGADSSADDAAAINALRQQIQALKVTGRQKINLDPDIVRVAERGNPPLQGNYTLWVGPPPSTVTLFGLISRPGKQPFTPGRDVASYLSDQSLLSGADRSYAWVVYPDGRTQKAPVAYWNKRHVEPMPGSIIYVGLADSVWSETPDALNADILQTLTQRIPQ,not soluble
11,MIKRFLEDTTDDGELSKFVKDFSGNASCHPPEAKTWASRPQVPEPRPQAPDLYDDDLEFRPPSRPQSSDNQQYFCAPAPLSPSARPRSPWGKLDPYDSSEDDKEYVGFATLPNQVHRKSVKKGFDFTLMVAGESGLGKSTLVNSLFLTDLYRDRKLLGAEERIMQTVEITKHAVDIEEKGVRLRLTIVDTPGFGDAVNNTECWKPVAEYIDQQFEQYFRDESGLNRKNIQDNRVHCCLYFISPFGHGLRPLDVEFMKALHQRVNIVPILAKADTLTPPEVDHKKRKIREEIEHFGIKIYQFPDCDSDEDEDFKLQDQALKESIPFAVIGSNTVVEARGRRVRGRLYPWGIVEVENPGHCDFVKLRTMLVRTHMQDLKDVTRETHYENYRAQCIQSMTRLVVKERNRNKLTRESGTDFPIPAVPPGTDPETEKLIREKDEELRRMQEMLHKIQKQMKENY,not soluble
12,MIKRILKIWFIIGMYELSKYLTNELIIYLQSEDDIDTAPKDFAILDDQIDLNRSFRRQIENDIAKAFEDAFNSSEKEDNLEHHHHHH,not soluble
13,MIKVDMTVDAKGLSCPMPIVRTKKAINELQPGQVLEVQATDKGSKADIKAWAESTGHQYLGTIEENGVLKHYIRKSAEHETRKETTFPHVVSNEELQEKLHDPDSFVLDVREPAEYAFGHIPGAVSIPLGELENRMAELPKDKTIYVVCRTGTRSDLAAQKLAEKGFDRVRNVIPGMSQWNGPLDSAQS,soluble
14,MIKVEIKPSQAQFTTRSGVSRQGKPYSLNEQLCYIDLGNEYPVLVKVTLDEGQPAYAPGLYTVHLSSFKVGQFGSLMIDRLRLVPAK,soluble
15,MILAILQARMSSTRLPGKVLMPLQRQPMIVRQIERVARSKRIDKLVVATSDRPEDDAIEAAVRREGIAVFRGSLDNVQQRFIGALDAHPADHVVRLTADCPLADPTLIDATIDLCLSKGADYVSNTPEGHAHPKGTDVEVMTAAALRRAAAEATTKEAFEHVTWDLWNQPQRWTCAWLPCFPDQGAVRWTVDRPDDYAFVAAVYDALYPANRAFTSDDIRAFVAGRPDLQDYGGDRRALEHHHHHH,not soluble
16,MILDTDYITENGKPVIRVFKKENGEFKIEYDRTFEPYFYALLKDDSAIEDVKKVTAKRHGTVVKVKRAEKVQKKFLGRPIEVWKLYFNHPQDVPAIRDRIRAHPAVVDIYEYDIPFAKRYLIDKGLIPMEGDEELTMLAFAIATLYHEGEEFGTGPILMISYADGSEARVITWKKIDLPYVDVVSTEKEMIKRFLRVVREKDPDVLITYNGDNFDFAYLKKRCEELGIKFTLGRDGSEPKIQRMGDRFAVEVKGRIHFDLYPVIRRTINLPTYTLEAVYEAVFGKPKEKVYAEEIAQAWESGEGLERVARYSMEDAKVTYELGREFFPMEAQLSRLIGQSLWDVSRSSTGNLVEWFLLRKAYKRNELAPNKPDERELARRRGGYAGGYVKEPERGLWDNIVYLDFRSLYPSIIITHNVSPDTLNREGCKEYDVAPEVGHKFCKDFPGFIPSLLGDLLEERQKIKRKMKATVDPLEKKLLDYRQRAIKILANSFYGYYGYAKARWYCKECAESVTAWGREYIEMVIRELEEKFGFKVLYADTDGLHATIPGADAETVKKKAKEFLKYINPKLPGLLELEYEGFYVRGFFVTKKKYAVIDEEGKITTRGLEIVRRDWSEIAKETQARVLEAILKHGDVEEAVRIVKEVTEKLSKYEVPPEKLVIHEQITRDLRDYKATGPHVAVAKRLAARGVKIRPGTVISYIVLKGSGRIGDRAIPADEFDPTKHRYDAEYYIENQVLPAVERILKAFGYRKEDLRYQKTKQVGLGAWLKVKGKK,soluble
17,MILETISKQLQEQQESLNKDYRKKLESIKERSDRLESDLKTQFDAQLEKWEQNFKGYEQQLTDILNEREQLDLDQQRLNAQKQALENHMKQREE,not soluble
